From patent US7407939B2, “Protein kinase inhibitors comprising ATP mimetics conjugated to peptides or peptidomimetics” (CureGenics Ltd., priority 2001, dated 2008)
Like-named read-outs stand apart in the source and are kept apart here. *1 amine or outer side, *2 acyl side, *3 side chain or, on linkers, in order; H or OH if unused. Where a SMILES comes first, the peptide text is derived from it. Where no end group is shown, it is not given here. Side-chain parts run from the residue outwards. [ ]: non-standard residue; d: D form. The star is where a group is joined. ξ: configuration not given here. X1 = 5‑aminoethylsulfonamide isoquinoline, O=S(=O)(NCCN*)c1cccc2cnccc12; Isoquinoline5sulfonyl = O=S(=O)(c1cccc2cnccc12)*; X3 = O=C(OC[C@H](Cc1ccccc1)N[*:1])[*:2]; Ethylenediamine = C(CN[*:2])N[*:1]; hLeu = CC(C)CC[C@H](N)C(=O)O; Nle = CCCC[C@H](N)C(=O)O; Orn = NCCC[C@H](N)C(=O)O; Dab = NCC[C@H](N)C(=O)O; Nva = CCC[C@H](N)C(=O)O; ξE = NC(CCC(=O)O)C(=O)O; Abu = CC[C@H](N)C(=O)O; Dap = NC[C@H](N)C(=O)O; βAla = NCCC(=O)O

Molecular target: T1, PKB (Homo sapiens, UniProt P31749)
T1 construct: His; HA; made in house
T1 sequence (P31749 whole entry, species assumed): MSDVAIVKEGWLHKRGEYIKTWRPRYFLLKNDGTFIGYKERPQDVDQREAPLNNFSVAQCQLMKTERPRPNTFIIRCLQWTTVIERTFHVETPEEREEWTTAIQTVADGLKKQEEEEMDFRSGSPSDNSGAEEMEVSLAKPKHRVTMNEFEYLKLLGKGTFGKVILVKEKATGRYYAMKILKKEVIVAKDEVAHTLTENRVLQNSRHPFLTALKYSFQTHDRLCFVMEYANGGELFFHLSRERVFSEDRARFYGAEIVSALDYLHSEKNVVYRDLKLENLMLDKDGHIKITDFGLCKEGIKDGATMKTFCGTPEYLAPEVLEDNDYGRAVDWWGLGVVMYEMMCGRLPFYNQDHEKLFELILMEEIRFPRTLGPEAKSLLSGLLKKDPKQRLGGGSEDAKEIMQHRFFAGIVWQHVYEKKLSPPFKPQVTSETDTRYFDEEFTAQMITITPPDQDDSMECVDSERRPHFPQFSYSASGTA
Test: PKB in vitro kinase activity assay (soluble His-HA-PKB / SPA bead screening)
Assay type: biochemical
Conditions: for PKB-kinase (spa) Assay 1, % inhibition of kinase activity / PKB-kinase (spa) Assay 2, % inhibition of kinase activity: 1 μM compound concentration

[1] = Table 3, linear 7-mer peptides, read-out: Activity PKB
[2] = chimeric PTR compounds (peptide conjugated to isoquinoline small molecule), read-out: PKB IC50

Compound	PKB-kinase (spa) Assay 1, % inhibition of kinase activity [%]	PKB-kinase (spa) Assay 2, % inhibition of kinase activity [%]	other results
60020-65: Arg-Pro-Arg-Dap-Glu(bAla-5-aminoethylsulfonamide isoquinoline)-Dab-Phe (RPR[Dap]E([βAla-X1])[Dab]F)	32	30	–
60020-66: Arg-Pro-Arg-Dap-Glu(bAla-5-aminoethylsulfonamide isoquinoline)-Dab-Hol (RPR[Dap]E([βAla-X1])[Dab][hLeu])	52	63	–
60020-69: Arg-Pro-Arg-Dap-Glu(bAla-5-aminoethylsulfonamide isoquinoline)-Ala-Phe (RPR[Dap]E([βAla-X1])AF)	36	57	–
60020-71: Arg-Pro-Arg-Dap-Glu(bAla-5-aminoethylsulfonamide isoquinoline)-Nva-Phe (RPR[Dap]E([βAla-X1])[Nva]F)	32	46	–
60020-72: Arg-Pro-Arg-Dap-Glu(bAla-5-aminoethylsulfonamide isoquinoline)-Nva-Hol (RPR[Dap]E([βAla-X1])[Nva][hLeu])	31	52	–
60020-73: Arg-Pro-Arg-Orn-Glu(bAla-5-aminoethylsulfonamide isoquinoline)-Dab-Phe (RPR[Orn]E([βAla-X1])[Dab]F)	16	35	–
60020-74: Arg-Pro-Arg-Orn-Glu(bAla-5-aminoethylsulfonamide isoquinoline)-Dab-Hol (RPR[Orn]E([βAla-X1])[Dab][hLeu])	33	41	–
60020-76: Arg-Pro-Arg-Orn-Glu(bAla-5-aminoethylsulfonamide isoquinoline)-Orn-Hol (RPR[Orn]E([βAla-X1])[Orn][hLeu])	38	38	–
60020-77: Arg-Pro-Arg-Orn-Glu(bAla-5-aminoethylsulfonamide isoquinoline)-Ala-Phe (RPR[Orn]E([βAla-X1])AF)	13	15	–
60020-80: Arg-Pro-Arg-Orn-Glu(bAla-5-aminoethylsulfonamide isoquinoline)-Nva-Hol (RPR[Orn]E([βAla-X1])[Nva][hLeu])	13	35	–
60020-82: Arg-Pro-Arg-Abu-Glu(bAla-5-aminoethylsulfonamide isoquinoline)-Dab-Hol (RPR[Abu]E([βAla-X1])[Dab][hLeu])	−9	56	–
60020-83: Arg-Pro-Arg-Abu-Glu(bAla-5-aminoethylsulfonamide isoquinoline)-Orn-Phe (RPR[Abu]E([βAla-X1])[Orn]F)	−21	60	–
60020-84: Arg-Pro-Arg-Abu-Glu(bAla-5-aminoethylsulfonamide isoquinoline)-Orn-Hol (RPR[Abu]E([βAla-X1])[Orn][hLeu])	10	51	–
60020-87: Arg-Pro-Arg-Abu-Glu(bAla-5-aminoethylsulfonamide isoquinoline)-Nva-Phe (RPR[Abu]E([βAla-X1])[Nva]F)	−50	5	–
60020-89: Arg-Pro-Arg-Nle-Glu(bAla-5-aminoethylsulfonamide isoquinoline)-Dab-Phe (RPR[Nle]E([βAla-X1])[Dab]F)	8	48	–
60020-90: Arg-Pro-Arg-Nle-Glu(bAla-5-aminoethylsulfonamide isoquinoline)-Dab-Hol (RPR[Nle]E([βAla-X1])[Dab][hLeu])	19	27	–
60020-92: Arg-Pro-Arg-Nle-Glu(bAla-5-aminoethylsulfonamide isoquinoline)-Orn-Hol (RPR[Nle]E([βAla-X1])[Orn][hLeu])	40	59	–
60020-94: Arg-Pro-Arg-Nle-Glu(bAla-5-aminoethylsulfonamide isoquinoline)-Ala-Hol (RPR[Nle]E([βAla-X1])A[hLeu])	9	31	–
60020-96: Arg-Pro-Arg-Nle-Glu(bAla-5-aminoethylsulfonamide isoquinoline)-Nva-Hol (RPR[Nle]E([βAla-X1])[Nva][hLeu])	0	54	–
N=C(N)NCCC[C@H](NC(=O)[C@@H]1CCCN1C(=O)[C@@H](N)CCCNC(=N)N)C(=O)N[C@@H](CCCN)C(=O)N[C@@H](CO)C(=O)N[C@@H](CO)C(=O)N[C@@H](Cc1ccccc1)C(N)=O [AR 60003-52, Arg-Pro-Arg-Orn-Ser-Ser-Phe] (H-RPR[Orn]SSF-NH2; N-terminus and C-terminus assumed)	–	–	IC50 [1]: 2.5 µM
CCCC[C@H](NC(=O)[C@H](CO)NC(=O)[C@H](CO)NC(=O)[C@H](CCCC)NC(=O)[C@H](CCCNC(=N)N)NC(=O)[C@@H]1CCCN1C(=O)[C@@H](N)CCCNC(=N)N)C(N)=O [AR 60003-62, Arg-Pro-Arg-Nle-Ser-Ser-Nle] (H-RPR[Nle]SS[Nle]-NH2)	–	–	inhibition at 1 µM (at 1 μM, Table 3, read-out: inhibition (PKB)): 70%
C[C@@H](O)[C@H](NC(=O)[C@H](CCCNC(=N)N)NC(=O)[C@@H]1CCCN1C(=O)[C@@H](N)CCCNC(=N)N)C(=O)N[C@@H](CO)C(=O)NC(CCC(=O)NCCNS(=O)(=O)c1cccc2cnccc12)C(=O)N[C@@H](Cc1ccccc1)C(N)=O (stereo partly shown) [PTR 6014] (H-RPRTS[ξE]([Ethylenediamine-Isoquinoline5sulfonyl])F-NH2)	–	–	IC50 (Table 2, chimeric compounds, read-out: Activity PKB): 25 µM
CC[C@H](NC(=O)[C@H](CO)NC(=O)[C@@H](NC(=O)[C@H](CCCNC(=N)N)NC(=O)[C@@H]1CCCN1C(=O)[C@@H](N)CCCNC(=N)N)[C@@H](C)O)C(=O)N[C@H](COC(=O)NCCNS(=O)(=O)c1cccc2cnccc12)Cc1ccccc1 [compound 6013] (H-RPRTS[Abu][X3]-{Ethylenediamine-Isoquinoline5sulfonyl})	–	–	IC50 [2]: 4 µM
C[C@@H](O)[C@H](NC(=O)[C@H](CCCNC(=N)N)NC(=O)[C@@H]1CCCN1C(=O)[C@@H](N)CCCNC(=N)N)C(=O)N[C@@H](CO)C(=O)N[C@@H](CCC(=O)NCCNS(=O)(=O)c1cccc2cnccc12)C(=O)N[C@@H](Cc1ccccc1)C(N)=O [compound 6014] (H-RPRTSE([Ethylenediamine-Isoquinoline5sulfonyl])F-NH2)	–	–	IC50 [2]: 25 µM
CCC[C@H](NC(=O)[C@H](CCCNC(=N)N)NC(=O)[C@@H]1CCCN1C(=O)[C@@H](N)CCCNC(=N)N)C(=O)N[C@@H](CCC(=O)NCCNS(=O)(=O)c1cccc2cnccc12)C(=O)N[C@@H](C)C(=O)N[C@@H](CCC(C)C)C(N)=O [compound 6150] (H-RPR[Nva]E([Ethylenediamine-Isoquinoline5sulfonyl])A[hLeu]-NH2; N-terminus assumed)	–	–	IC50 [2]: 25 µM
RPRMSSF-NH2 (C-terminus assumed) [AR 60003-50, Arg-Pro-Arg-Met-Ser-Ser-Phe]	–	–	IC50 [1]: 2.5 µM
RPRRSSF-NH2 (C-terminus assumed) [AR 60003-53, Arg-Pro-Arg-Arg-Ser-Ser-Phe]	–	–	IC50 [1]: 3 µM
RPRRSSR [AR 60003-64, Arg-Pro-Arg-Arg-Ser-Ser-Arg]	–	–	Activity PKB (Table 3, linear 7-mer peptides): Not active
RPRTSDF [TY 60002-18, Arg-Pro-Arg-Thr-Ser-Asp-Phe]	–	–	Activity PKB (Table 3, linear 7-mer peptides): Not active

Continued, in another order:

PKB-kinase (spa) Assay 1, % inhibition of kinase activity [%]	PKB-kinase (spa) Assay 2, % inhibition of kinase activity [%]	Compound	other results
57	68	60020-70: Arg-Pro-Arg-Dap-Glu(bAla-5-aminoethylsulfonamide isoquinoline)-Ala-Hol (RPR[Dap]E([βAla-X1])A[hLeu])	–
23	35	60020-75: Arg-Pro-Arg-Orn-Glu(bAla-5-aminoethylsulfonamide isoquinoline)-Orn-Phe (RPR[Orn]E([βAla-X1])[Orn]F)	–
21	24	60020-78: Arg-Pro-Arg-Orn-Glu(bAla-5-aminoethylsulfonamide isoquinoline)-Ala-Hol (RPR[Orn]E([βAla-X1])A[hLeu])	–
−17	42	60020-81: Arg-Pro-Arg-Abu-Glu(bAla-5-aminoethylsulfonamide isoquinoline)-Dab-Phe (RPR[Abu]E([βAla-X1])[Dab]F)	–
−27	−2	60020-85: Arg-Pro-Arg-Abu-Glu(bAla-5-aminoethylsulfonamide isoquinoline)-Ala-Phe (RPR[Abu]E([βAla-X1])AF)	–
−55	−5	60020-86: Arg-Pro-Arg-Abu-Glu(bAla-5-aminoethylsulfonamide isoquinoline)-Ala-Hol (RPR[Abu]E([βAla-X1])A[hLeu])	–
−50	31	60020-88: Arg-Pro-Arg-Abu-Glu(bAla-5-aminoethylsulfonamide isoquinoline)-Nva-Hol (RPR[Abu]E([βAla-X1])[Nva][hLeu])	–
−12	58	60020-93: Arg-Pro-Arg-Nle-Glu(bAla-5-aminoethylsulfonamide isoquinoline)-Ala-Phe (RPR[Nle]E([βAla-X1])AF)	–
